“Also recorded” adds a separate entry of the source.
Tests used:
[1] = system: PKCδVIII and Bcl2 expressed in THP-1 monocytic cells; experiment: Western blot of PKCδVIII and Bcl2 in THP-1 monocytic cells; assay type: cell-based, human; conditions: THP-1, G-CSF 200 ng/mL (10.6 nM), 24 h
Description: (§1) In addition, a set of flasks were co-incubated with the combination of G-CSF and 3 concentrations of test drug. Whole cell lysates ([…]) were separated on 10% polyacrylamide gel electrophoresis-SDS (PAGE-SDS). Proteins were electrophoretically transferred to nitrocellulose membranes, blocked with 5% nonfat milk prepared on Tris buffered saline containing 0.1% Tween 20, washed and incubated with a polyclonal antibody against either Bcl2 (Cell Signaling, Danvers, Mass.) or PKCδVIII-specific polyclonal antibody (Jiang, K., et al. Biochemistry 2008, 47, 787-797). The house keeping gene GAPDH was used as an internal standard. Following incubation with anti-rabbit IgG-HRP, enhanced chemiluminesence (Pierce™, Thermo Scientific, Walthahm, Mass.) was used for detection and the gels were analyzed using UN-SCAN-IT™ software (Silk Scientific, Inc., Orem, Utah).
(§2) Statistical analysis. Densitometric results from Western blots were analyzed with two-tailed t-tests when only two groups were compared. In other analyses where 3 groups were compared, one-way ANOVA followed by t-tests with Dunnett's corrections for multiple comparisons was utilized. All data was presented as mean±SEM. All statistical analysis of data was done via PRISM4 or PRISM5 statistical analysis software (GraphPad Prism, La Jolla, Calif.). Neurohistologic analyses are performed using ANOVA. All comparisons were considered significant at level of P<0.05.

[2] = system: mouse model of TBI; conditions: earlier G-CSF work stated as background to Example 6; cited from earlier work
[3] = system: PKCδVIII and Bcl2 expressed in SH-SY5Y neuronal cells; experiment: Western blot of PKCδVIII and Bcl2 in SH-SY5Y neuronal cells; assay type: cell-based, human; conditions: SH-SY5Y, G-CSF 100 ng/mL (5.3 nM), 24 h
Description: as §1, with “THP-1 cells or SH-SY5Y cells 3×10^6 cells in 5 mL media in a 25 cm^2 flask were treated with 100 ng/mL G-CSF or three different concentrations of the test drug for 24 h. In addition,” for “In addition,”
as §2

B1: G-CSF: Granulocyte-colony stimulating factor, a glycoprotein cytokine; natural ligand of G-CSF-R; SEQ ID NO: 1 (protein, listed as Homo sapiens)
chain: MAGPATQSPMKLMALQLLLWHSALWTVQEATPLGPASSLPQSFLLKCLEQVRKIQGDGAALQEKLVSECATYKLCHPEELVLLGHSLGIPWAPLSSCPSQALQLAGCLSQLHSGLFLYQGLLQALEGISPELGPTLDTLQLDVADFATTIWQQMEELGMAPALQPTQGAMPAFASAFQRRAGGVLVASHLQSFLEVSYRVLRHLAQP
Bcl2 expression [1]: increased the expression of PKCδVIII and Bcl2 | PKCδVIII expression [1]: increased the expression of PKCδVIII and Bcl2 | recovery in the radial arm water maze (RAWM) [2]: significantly promoted recovery | Bcl2 expression [3]: much greater at equivalent concentrations; also recorded: increased | PKCδVIII expression [3]: much greater at equivalent concentrations; also recorded: increased
